Several values for one entry are separate records, joined by “and”; a condition that tells them apart may be missing. Equal values may be shown once. Entries after “also recorded” stand apart in the source; their conditions may differ. Read-outs that look alike come from different tables or passages of the source. *: point of attachment. 5FAM = O=C1OC2(c3ccc(O)cc3Oc3cc(O)ccc32)c2ccc(C(=O)*)cc21; DABCYL = quencher, CN(C)c1ccc(/N=N/c2ccc(C(=O)*)cc2)cc1
Key:
[1] = target: Collagenase I (Hathewaya histolytica, UniProt Q9X721); assay type: biochemical, Clostridium histolyticum; details: for Km / Vmax: collagenase I 0.45 μg/ml; for effect of zinc on measured RFU (enzymatic cleavage): zinc salt 16.7 μM, presence or absence of CaCl2 4.14 mM, vs control and NaSO4
Sequence of Collagenase I (Q9X721 111-1118): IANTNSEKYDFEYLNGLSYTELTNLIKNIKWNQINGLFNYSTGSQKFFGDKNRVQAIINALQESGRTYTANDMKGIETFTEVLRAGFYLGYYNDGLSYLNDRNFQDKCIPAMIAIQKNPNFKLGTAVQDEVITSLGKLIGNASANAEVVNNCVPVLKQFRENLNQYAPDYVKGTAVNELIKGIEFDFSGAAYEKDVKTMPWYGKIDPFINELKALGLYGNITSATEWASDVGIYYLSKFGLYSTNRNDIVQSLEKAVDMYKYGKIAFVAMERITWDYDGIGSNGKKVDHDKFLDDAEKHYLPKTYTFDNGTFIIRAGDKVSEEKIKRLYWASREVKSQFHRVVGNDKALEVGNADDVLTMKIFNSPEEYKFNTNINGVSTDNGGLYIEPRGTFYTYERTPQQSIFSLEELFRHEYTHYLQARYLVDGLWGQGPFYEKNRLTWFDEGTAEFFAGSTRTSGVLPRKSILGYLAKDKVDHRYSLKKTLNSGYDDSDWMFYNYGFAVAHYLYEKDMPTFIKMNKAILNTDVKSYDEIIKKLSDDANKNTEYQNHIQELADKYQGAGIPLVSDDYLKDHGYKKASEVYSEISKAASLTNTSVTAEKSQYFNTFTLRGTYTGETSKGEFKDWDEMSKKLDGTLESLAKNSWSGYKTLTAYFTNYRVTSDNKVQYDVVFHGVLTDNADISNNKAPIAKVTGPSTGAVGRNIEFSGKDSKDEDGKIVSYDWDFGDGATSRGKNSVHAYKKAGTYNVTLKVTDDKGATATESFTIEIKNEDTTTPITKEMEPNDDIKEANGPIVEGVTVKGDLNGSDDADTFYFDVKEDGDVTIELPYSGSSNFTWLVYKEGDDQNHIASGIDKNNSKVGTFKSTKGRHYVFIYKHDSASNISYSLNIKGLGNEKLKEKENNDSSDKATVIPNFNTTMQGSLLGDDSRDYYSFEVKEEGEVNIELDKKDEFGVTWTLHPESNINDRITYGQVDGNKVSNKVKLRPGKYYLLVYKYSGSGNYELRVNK

[2] = target: Collagenase II (Hathewaya histolytica, UniProt Q46085); assay type: biochemical, Clostridium histolyticum
[3] = target: Thermolysin (Bacillus thermoproteolyticus, UniProt P00800); assay type: biochemical; details: for effect of zinc on measured RFU (enzymatic cleavage): zinc salt 16.7 μM, presence or absence of CaCl2 4.14 mM, vs control and NaSO4
Sequence of Thermolysin (P00800 233-548): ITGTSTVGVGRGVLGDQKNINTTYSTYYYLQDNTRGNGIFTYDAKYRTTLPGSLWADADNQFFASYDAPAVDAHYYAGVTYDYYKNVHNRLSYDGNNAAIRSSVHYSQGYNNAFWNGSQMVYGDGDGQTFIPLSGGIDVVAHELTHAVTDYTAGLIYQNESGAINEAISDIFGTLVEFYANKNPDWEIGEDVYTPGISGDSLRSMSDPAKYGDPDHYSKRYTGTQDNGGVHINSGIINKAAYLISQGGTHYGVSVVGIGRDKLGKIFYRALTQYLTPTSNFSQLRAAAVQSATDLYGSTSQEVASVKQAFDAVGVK

[4] = test system: Neutral Protease; assay type: biochemical, Clostridium histolyticum; details: for Km / Vmax: neutral protease 20 μg/ml, substrate 5-80 μM, Example 2; for effect of zinc on measured RFU (enzymatic cleavage): zinc salt 16.7 μM, presence or absence of CaCl2 4.14 mM, vs control and NaSO4
Description: GraphPad Prism (GraphPad Software 6.0, La Jolla, Calif., USA) was used for analyzing the data and generating the graphs. Both non-linear Michaelis-Menten and linear Lineweaver-Burk plots were used for the enzyme kinetics study. Kinetic parameters Vmax and Km were obtained from the Michaelis-Menten model by plotting the reaction velocity at different concentration of peptide substrate. Non-linear Michaelis-Menten curves for the enzymatic reaction in the presence and absence of CaCl2 were compared using Prism. All samples were run in duplicate, and results are reported as average±standard error of the mean (SEM). One-way or two-way ANOVA analysis followed by Tukey's multiple comparisons test was used to conduct multiple variable comparisons when applicable. Differences in data were considered significant when P values were less than 0.05.

[5] = target: chymotrypsin (Bos taurus, UniProt P00766); assay type: biochemical
[6] = target: elastase (Sus scrofa, UniProt P00772); assay type: biochemical
Sequence of elastase (P00772 27-266): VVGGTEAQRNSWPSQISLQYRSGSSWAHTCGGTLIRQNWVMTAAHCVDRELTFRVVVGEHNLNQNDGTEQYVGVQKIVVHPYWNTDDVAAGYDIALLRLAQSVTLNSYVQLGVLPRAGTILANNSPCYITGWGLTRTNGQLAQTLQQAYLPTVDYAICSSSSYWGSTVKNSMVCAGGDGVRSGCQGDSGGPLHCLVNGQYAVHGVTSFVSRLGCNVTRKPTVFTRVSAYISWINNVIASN

[7] = test system: collagenase; test: Enzymes that can cleave the substrate (Table 2); assay type: biochemical; details: general statement
[8] = target: dispase (Paenibacillus polymyxa, UniProt P29148); test: Enzymes that can cleave the substrate (Table 2); assay type: biochemical; details: general statement
Sequence of dispase (P29148 287-590): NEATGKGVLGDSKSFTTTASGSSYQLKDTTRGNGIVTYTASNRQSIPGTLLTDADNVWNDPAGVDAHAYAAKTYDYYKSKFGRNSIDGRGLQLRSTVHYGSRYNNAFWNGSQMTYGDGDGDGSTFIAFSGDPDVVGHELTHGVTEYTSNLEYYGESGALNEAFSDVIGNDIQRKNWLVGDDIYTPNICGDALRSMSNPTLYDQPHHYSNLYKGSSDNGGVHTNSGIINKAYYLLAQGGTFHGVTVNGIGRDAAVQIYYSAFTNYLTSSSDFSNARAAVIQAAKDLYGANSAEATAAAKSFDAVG

[9] = test system: Collagenase I/II; assay type: biochemical; details: general statement
Protocol: The cleavage sites produced by various proteases were analyzed using the known sequence of the novel protease substrate 5FAMcollagenPPT. As provided herein, the cleavage sites were determined based on the results of mass spectrometric analysis of the protease substrate 5FAMcollagenPPT peptide fragments obtained from an enzymatic reaction with various enzymes tested.
Cleavage of the novel fluorogenic protease substrate 5FAMcollagenPPT was further investigated using various proteases. After cleavage of the substrate by proteases, the resulting cleavage products of the protease substrate were specifically analyzed using matrix-assisted laser desorption/ionization (MALDI) mass spectrometry.
Next, the specific sequences of the protease substrate 5FAMcollagenPPT cleavage products were analyzed using MALDI. Briefly, each protease was incubated for 15 minutes with the protease substrate at 22° C. Buffer conditions and concentrations of the protease substrates and proteases were as described in Example 2. The uncleaved 5FAMcollagenPPT substrate has a molecular weight of 1669.8 Daltons. The molecular weights of the resulting products of the protease substrate after cleavage by various proteases are shown in Table 8 and FIG. 13.

[10] = test system: proteases listed in Table 7 except thermolysin (Collagenase I Liq, Collagenase II Liq, Collagenase NB1, Collagenase I/II, Neutral Protease NB); assay type: biochemical; details: within the first hour; almost all proteases tested except thermolysin; peptide 10 μM; protease 20 μg/mL; pH 7.5
[11] = test system: trypsin; details: for Enzymes that do not cleave 5FAMcollagenPPT: trypsin: general statement
[12] = target: Botulinum neurotoxin A (Clostridium botulinum, UniProt P0DPI0)
[13] = target: Botulinum neurotoxin B (Clostridium botulinum, UniProt P10844)
[14] = water
[15] = with 4.14 mM calcium, substrate 5-80 μM, Example 2
[16] = without calcium, substrate 5-80 μM, Example 2
[17] = Example 3 (FIG. 10), thermolysin 17 μg/ml
[18] = enzyme 0.3125-10 μg/mL, substrate 50 μM, Example 3
[19] = with 4.14 mM calcium, thermolysin 17 μg/ml, substrate 5-80 μM, Example 2
[20] = without calcium, thermolysin 17 μg/ml, substrate 5-80 μM, Example 2
[21] = general statement, listed as 5FAM collagenPPT

## 5-FAM-Ala-Gly-Gly-Pro-Leu-Gly-Pro-Pro-Gly-Pro-Gly-Gly-Lys-[DABCYL]-amide (5FAM-AGGPLGPPGPGGK(DABCYL)-NH2; SMILES CC(C)C[C@H](NC(=O)[C@@H]1CCCN1C(=O)CNC(=O)CNC(=O)[C@H](C)NC(=O)c1ccc2c(c1)C(=O)OC21c2ccc(O)cc2Oc2cc(O)ccc21)C(=O)NCC(=O)N1CCC[C@H]1C(=O)N1CCC[C@H]1C(=O)NCC(=O)N1CCC[C@H]1C(=O)NCC(=O)NCC(=O)N[C@@H](CCCCNC(=O)c1ccc(/N=N/c2ccc(N(C)C)cc2)cc1)C(N)=O) [5FAMcollagenPPT]
[1]; Example 3 (FIG. 10)
  Km: 28.2 µM
  Vmax: 909 RFU/min/μg
[1]; general statement
  Enzymes that can cleave 5FAMcollagenPPT: collagenase I (class I): shown to cleave; also recorded: cleaved
[1]; pH 6.8, 7.0, 7.5, 8.0, substrate 20 μM
  effect of pH on enzymatic cleavage activity: influenced by pH except Collagenase I
[1]; [15]
  Km: 32.9 µM
  Vmax: 1008.158 RFU/min/μg
[1]; [16]
  Km: 38.1 µM
  Vmax: 1704.72 RFU/min/μg
[2]
  Enzymes that can cleave 5FAMcollagenPPT: collagenase II (class II): shown to cleave; also recorded: cleaved
  Km: 29.7 µM and 24.1 µM and 24.5 µM
  Vmax: 3354.43 RFU/min/μg and 3243.942 RFU/min/μg and 5000 RFU/min/μg
  effect of pH on enzymatic cleavage activity: significantly inhibited
[3]; [17]
  Km: 34.6 µM
  Vmax: 24.6 RFU/min/μg
[3]; [18]
  specificity of substrate for thermolysin, dose response (FIG. 11): highly specific
[3]; enzyme 2.5, 5, 10 μg/ml, substrate 50 μM, with and without 4.14 mM CaCl2
  cleavage of substrate by thermolysin (FIG. 9): dose-dependent cleavage; also recorded: cleaved
[3]; general statement
  Enzymes that can cleave 5FAMcollagenPPT: thermolysin: cleaved by thermolysin; also recorded: shown to cleave; also recorded: cleavable by thermolysin
[3]; pH 8.0 compared to all other pH conditions, substrate 20 μM
  effect of pH on enzymatic cleavage activity: significantly inhibited
[3]; [19]
  Km: 24.8 µM
  Vmax: 25.47 RFU/min/μg
[3]; [20]
  Km: 30.4 µM
  Vmax: 23.7 RFU/min/μg
[4]; between pH 7.0 and pH 8.0, substrate 20 μM
  effect of pH on enzymatic cleavage activity: significant difference
[4]; with 4.14 mM calcium
  Km: 45.1 µM
  Vmax: 29.28 RFU/min/μg
[4]; without calcium
  Km: 74.1 µM
  Vmax: 20.04 RFU/min/μg
[5]; [18]
  cleavage of substrate by chymotrypsin, dose response (FIG. 11): do not cleave
[5]; [21]
  Enzymes that do not cleave 5FAMcollagenPPT: chymotrypsin: chymotrypsin
[6]; [18]
  cleavage of substrate by elastase, dose response (FIG. 11): do not cleave
[6]; [21]
  Enzymes that do not cleave 5FAMcollagenPPT: elastase: elastase
[7]
  Enzymes that can cleave 5FAMcollagenPPT: collagenase: collagenase-specific
[8]
  Enzymes that can cleave 5FAMcollagenPPT: dispase: cleaved; also recorded: dispase
[9]
  Enzymes that can cleave 5FAMcollagenPPT: class I/II collagenase: cleaved
[10]
  cleavage of substrate over time (FIG. 12): efficient cleavage
[11]; [18]
  cleavage of substrate by trypsin, dose response (FIG. 11): do not cleave
[11]; enzyme 2.5, 5, 10 μg/ml, substrate 50 μM, with and without 4.14 mM CaCl2, compared to thermolysin
  cleavage of substrate by trypsin (FIG. 9): significantly diminished reactivity; also recorded: not cleaved
[11]
  Enzymes that do not cleave 5FAMcollagenPPT: trypsin: not degraded; also recorded: resistant to trypsin; also recorded: resistant to cleavage
[11]; listed as 5FAM collagenPPT
  Enzymes that do not cleave 5FAMcollagenPPT: trypsin: trypsin
[12]
  Enzymes that can cleave 5FAMcollagenPPT: Botulinum neurotoxin A: Botulinum neurotoxin A and B
[13]
  Enzymes that can cleave 5FAMcollagenPPT: Botulinum neurotoxin B: Botulinum neurotoxin A and B
[14]
  solubility: water soluble

## [Ca+2].[Cl-].[Cl-] [CaCl2, reference compound]
[1]; CaCl2 4.14 mM, Collagenase I 0.45 μg/ml, substrate 5FAMcollagenPPT 5-80 μM
  effect of CaCl2 on the cleavage reaction (Michaelis-Menten curves): significantly enhanced
[2]
  effect of CaCl2 on the cleavage reaction (Michaelis-Menten curves): did not change significantly
[3]; CaCl2 4.14 mM, Thermolysin 17 μg/ml, substrate 5FAMcollagenPPT 5-80 μM
  effect of CaCl2 on the cleavage reaction (Michaelis-Menten curves): did not change significantly
[4]; CaCl2 4.14 mM, Neutral Protease 20 μg/ml, substrate 5FAMcollagenPPT 5-80 μM
  effect of CaCl2 on the cleavage reaction (Michaelis-Menten curves): significantly enhanced

## O=C(O)CN(CCOCCOCCN(CC(=O)O)CC(=O)O)CC(=O)O [EGTA, ethylene glycol-bis(β-aminoethyl ether)-N,N,N′,N′-tetraacetic acid, reference compound]
[2]
  effect of EGTA on RFU levels vs controls: significant differences
[3]; EGTA 25, 50, 100 mM, thermolysin 17 μg/ml, substrate 20 μM
  effect of EGTA on RFU levels vs controls: significant differences

## [Cl-].[Cl-].[Zn+2] [ZnCl2, reference compound]
[1]; substrate 20 μM
  effect of zinc on measured RFU (enzymatic cleavage): significantly decreased
[2]
  effect of zinc on measured RFU (enzymatic cleavage): significantly decreased
[3]; substrate 20 μM
  effect of zinc on measured RFU (enzymatic cleavage): significantly decreased
[4]; substrate 20 μM
  effect of zinc on measured RFU (enzymatic cleavage): significantly decreased

## O=S(=O)([O-])[O-].[Zn+2] [ZnSO4, reference compound]
[1]; substrate 20 μM
  effect of zinc on measured RFU (enzymatic cleavage): significantly decreased
[2]
  effect of zinc on measured RFU (enzymatic cleavage): significantly decreased
[3]; substrate 20 μM
  effect of zinc on measured RFU (enzymatic cleavage): significantly decreased
[4]; substrate 20 μM
  effect of zinc on measured RFU (enzymatic cleavage): significantly decreased
